Patent US20160009799A1 (ORDER MADE MEDICAL RESEARCH, published 2016)

Legend:
[1] = target: T1, SLC6A6 (solute carrier family 6 (neurotransmitter transporter, taurine), member 6) on human colorectal cancer … (human, UniProt P31641 1-620); assay: flow cytometry on 10 colorectal cancer cell lines, antibody at 1 ug/mL
T1 construct: Endogenous protein on ten colorectal cancer cell lines (Caco-2, COLO201, DLD-1, HCT15, HCT116, HT-29, LoVo, SW480, SW620, WiDr); also called native SLC6A6
T1 sequence: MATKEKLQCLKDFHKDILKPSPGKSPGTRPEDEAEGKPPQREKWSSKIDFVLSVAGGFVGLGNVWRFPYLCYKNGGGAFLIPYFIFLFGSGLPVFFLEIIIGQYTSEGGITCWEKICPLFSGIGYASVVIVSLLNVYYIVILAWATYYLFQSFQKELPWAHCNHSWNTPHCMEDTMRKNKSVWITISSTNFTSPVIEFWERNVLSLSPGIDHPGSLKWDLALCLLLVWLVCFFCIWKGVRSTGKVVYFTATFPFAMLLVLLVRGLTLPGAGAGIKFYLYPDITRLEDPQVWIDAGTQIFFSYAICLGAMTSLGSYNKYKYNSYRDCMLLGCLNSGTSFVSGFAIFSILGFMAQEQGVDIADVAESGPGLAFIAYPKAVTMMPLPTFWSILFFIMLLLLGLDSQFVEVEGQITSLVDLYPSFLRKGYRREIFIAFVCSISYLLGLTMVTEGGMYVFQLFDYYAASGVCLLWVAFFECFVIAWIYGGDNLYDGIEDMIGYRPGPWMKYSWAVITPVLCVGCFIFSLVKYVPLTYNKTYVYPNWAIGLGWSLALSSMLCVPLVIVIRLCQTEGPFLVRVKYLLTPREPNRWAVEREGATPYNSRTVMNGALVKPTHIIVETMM
Description: Ten lines of colorectal cancer cells were each cultured to reach 90% confluency. The cells of each line were washed twice with PBS, detached with a scraper and collected into a 1.5 mL tube. 4B9b and 5H12d antibodies were each added to give a final concentration of 1 μg/mL, followed by reaction for 60 minutes. After washing twice with PBS+2% FBS, AlexaFluor 488-labeled goat anti-mouse IgG (Invitrogen) was added as a 1/1000 dilution in PBS+2% FBS, followed by reaction for 30 minutes. After washing twice with PBS+2% PBS(FBS?), the cells were analyzed by Guava Flow Cytometry (Millipore).

[2] = target: T2, partial protein of the extracellular region of SLC6A6 (amino acid residues 143 to 216), His tag at the … (human, UniProt P31641 143-216); assay: ELISA on plate-bound recombinant SLC6A6 partial protein, antibody 0 to 40 ug/mL
T2 construct: also called SLC6A6 partial protein for screening; recombinant protein obtained in (6); not shown: His tag added to the C-terminal end (pET32 vector)
T2 sequence: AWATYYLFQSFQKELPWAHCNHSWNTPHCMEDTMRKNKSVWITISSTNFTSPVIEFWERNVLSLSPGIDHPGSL
Description: The recombinant protein obtained in (6) above (10 μg/ml) was dispensed in 100 μL volumes into MaxiSorp 96-well plates (Nunc) and adsorbed onto the plates at room temperature for 1 hour. After adsorption, each well was washed with TBS-T (25 mM Tris, 150 mM NaCl, 0.05% (v/v) Tween 20, pH 7.4) and charged with skimmed milk (GIBCO), which had been diluted at a concentration of 5% with TBS-T, to conduct blocking for 30 minutes at room temperature. After each well was washed three times with 200 μL TBS-T, […] ELISA plates in a volume of 100 μL per well, followed by reaction at room temperature for 1 hour. Each well was washed three times with […] TBS-T.
For use as a secondary antibody, anti-mouse IgG polyclonal antibody-HRP label (BETHYL) was diluted 5,000-fold with TBS-T. The above antibody dilution was added in a volume of 100 μL per well and reacted at room temperature for 30 minutes. Each well was washed three times with 200 μL TBS-T. Orthophenylenediamine (Sigma) was diluted with 50 mM carbonate-citrate buffer (pH 5.0) to give a final concentration of 0.5 mg/mL and mixed with 1/10,000 volumes of 35% (w/w) aqueous hydrogen peroxide (WAKO). […] The absorbance at 492 nm was measured with a plate reader (SpectraMax Plus 384, Molecular Devices) to analyze antibody titers, which were then used for selection of mice to be used for cell fusion. […]

Binder	binding result [1]	binding result [2]
4B9b antibody (produced by Mouse-Mouse hybridoma 4B9b, FERM BP-11413) (antibody, mouse IgM, V domains shown, also called anti-SLC6A6 antibody, 4B9b) VH: QVKLQQSGAELMKPGASVKISCKATGYTFSRYWIEWVKQRPGHGLEWIGEILPGSGSTNYNEKFKGKATFTADTSSNTAYMQLSSLTSEDSAVYYCARGGFLGHYGFAYWGQGTLVTVSA VL: DIQLTQSPTTMAASPGEKITITCSASSSISSNYLHWYQQKPGFSPKLLIYRTSNLASGVPARFSGSGSGTSYSLTIGTMEAEDVATYYCQQGSSIPYTFGGGTKLEIK	binds	
mouse IgG1-converted anti-SLC6A6 antibody (4B9b) (antibody, V domains shown, Expressed in Cos7 cells and purified on Protein G; also called mouse IgG-converted antibody; mouse IgG-chimerized antibody) VH: QVKLQQSGAELMKPGASVKISCKATGYTFSRYWIEWVKQRPGHGLEWIGEILPGSGSTNYNEKFKGKATFTADTSSNTAYMQLSSLTSEDSAVYYCARGGFLGHYGFAYWGQGTLVTVSA VL: DIQLTQSPTTMAASPGEKITITCSASSSISSNYLHWYQQKPGFSPKLLIYRTSNLASGVPARFSGSGSGTSYSLTIGTMEAEDVATYYCQQGSSIPYTFGGGTKLEIKR		binds
